Results reported in patent publication US20030108554A1 (published 2003).

Columns and labels:
pol κ = biological target: T1, pol κ (UniProt Q9UBT6 1-870); experiment: yeast two-hybrid
T1 construct: Tested in yeast two-hybrid (GAL4 domain fusion); also called primary protein product of the POLK
T1 sequence (looked up): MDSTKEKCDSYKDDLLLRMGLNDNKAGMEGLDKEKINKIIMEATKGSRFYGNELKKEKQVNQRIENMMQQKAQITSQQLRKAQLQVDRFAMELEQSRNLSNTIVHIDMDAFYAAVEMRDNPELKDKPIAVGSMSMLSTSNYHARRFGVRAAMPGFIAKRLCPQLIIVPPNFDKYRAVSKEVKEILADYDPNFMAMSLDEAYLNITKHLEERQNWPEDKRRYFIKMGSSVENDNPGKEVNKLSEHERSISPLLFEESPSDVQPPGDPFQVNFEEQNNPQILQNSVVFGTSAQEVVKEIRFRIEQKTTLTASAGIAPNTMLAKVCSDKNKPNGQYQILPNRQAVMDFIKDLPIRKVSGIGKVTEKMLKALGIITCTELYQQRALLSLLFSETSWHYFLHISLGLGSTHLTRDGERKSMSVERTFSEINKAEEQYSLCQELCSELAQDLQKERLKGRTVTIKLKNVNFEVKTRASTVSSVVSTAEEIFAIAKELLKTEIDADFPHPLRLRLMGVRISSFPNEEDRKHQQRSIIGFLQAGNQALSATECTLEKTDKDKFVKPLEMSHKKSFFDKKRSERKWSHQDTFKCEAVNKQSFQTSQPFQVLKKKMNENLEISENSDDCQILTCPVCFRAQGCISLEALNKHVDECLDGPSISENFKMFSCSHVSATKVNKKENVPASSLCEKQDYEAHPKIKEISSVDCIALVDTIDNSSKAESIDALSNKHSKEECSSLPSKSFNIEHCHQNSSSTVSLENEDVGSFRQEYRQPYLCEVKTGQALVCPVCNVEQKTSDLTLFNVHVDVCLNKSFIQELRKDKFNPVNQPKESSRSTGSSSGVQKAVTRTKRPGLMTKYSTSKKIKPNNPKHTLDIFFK

[1] = biological target: T2, GIP130c with deletion of the N terminal 240-residues (human, UniProt Q4L180 241-1128); experiment: yeast two-hybrid
T2 sequence: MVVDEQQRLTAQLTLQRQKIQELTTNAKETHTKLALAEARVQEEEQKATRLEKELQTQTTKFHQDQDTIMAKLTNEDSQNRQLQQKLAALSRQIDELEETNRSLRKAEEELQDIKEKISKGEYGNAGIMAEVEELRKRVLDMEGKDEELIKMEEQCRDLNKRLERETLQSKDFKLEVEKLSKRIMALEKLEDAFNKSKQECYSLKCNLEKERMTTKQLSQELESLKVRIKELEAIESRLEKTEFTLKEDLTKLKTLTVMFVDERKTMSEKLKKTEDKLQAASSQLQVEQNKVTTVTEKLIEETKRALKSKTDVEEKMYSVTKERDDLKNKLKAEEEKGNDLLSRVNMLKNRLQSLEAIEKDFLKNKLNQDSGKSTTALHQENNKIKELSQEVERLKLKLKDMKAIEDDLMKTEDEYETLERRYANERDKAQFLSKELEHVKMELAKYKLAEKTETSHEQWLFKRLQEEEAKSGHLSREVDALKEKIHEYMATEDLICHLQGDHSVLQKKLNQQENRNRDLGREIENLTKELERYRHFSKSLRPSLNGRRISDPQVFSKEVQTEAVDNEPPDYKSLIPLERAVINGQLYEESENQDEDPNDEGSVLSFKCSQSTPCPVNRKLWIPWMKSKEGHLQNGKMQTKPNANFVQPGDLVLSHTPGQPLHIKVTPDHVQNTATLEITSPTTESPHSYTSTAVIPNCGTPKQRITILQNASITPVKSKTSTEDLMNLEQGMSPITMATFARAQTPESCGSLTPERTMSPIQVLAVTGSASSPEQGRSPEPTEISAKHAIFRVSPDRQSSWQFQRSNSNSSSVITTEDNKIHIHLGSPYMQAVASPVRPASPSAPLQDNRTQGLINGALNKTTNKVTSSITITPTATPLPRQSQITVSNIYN

B1: Goodpasture antigen binding protein (GPBP) (enzyme, UniProt Q9Y5P4 1-624, looked up)
chain: MSDNQSWNSSGSEEDPETESGPPVERCGVLSKWTNYIHGWQDRWVVLKNNALSYYKSEDETEYGCRGSICLSKAVITPHDFDECRFDISVNDSVWYLRAQDPDHRQQWIDAIEQHKTESGYGSESSLRRHGSMVSLVSGASGYSATSTSSFKKGHSLREKLAEMETFRDILCRQVDTLQKYFDACADAVSKDELQRDKVVEDDEDDFPTTRSDGDFLHSTNGNKEKLFPHVTPKGINGIDFKGEAITFKATTAGILATLSHCIELMVKREDSWQKRLDKETEKKRRTEEAYKNAMTELKKKSHFGGPDYEEGPNSLINEEEFFDAVEAALDRQDKIEEQSQSEKVRLHWPTSLPSGDAFSSVGTHRFVQKPYSRSSSMSSIDLVSASDDVHRFSSQVEEMVQNHMTYSLQDVGGDANWQLVVEEGEMKVYRREVEENGIVLDPLKATHAVKGVTGHEVCNYFWNVDVRNDWETTIENFHVVETLADNAIIIYQTHKRVWPASQRDVLYLSVIRKIPALTENDPETWIVCNFSVDHDSAPLNNRCVRAKINVAMICQTLVSPPEGNQEISRDNILCKITYVANVNPGGWAPASVLRAVAKREYPKFLKRFTSYVQEKTAGKPILF
notes: Protein kinase; Fusion parts are not written as pieces
B1: no binding (pol κ); no binding [1].
